Source: patent US7410774B1, “Compounds modulating sister chromatid separation and method for identifying same” (Boehringer Ingelheim International GmbH, priority 1999, dated 2008)

Tests used:
Esp1 = molecular target: T1, Esp1 (Saccharomyces cerevisiae, UniProt Q03018); experiment: In vitro assay for yeast Esp1p activity (Esp1-dependent Scc1p cleavage); type: biochemical; conditions: yeast chromatin incubated with extract over-producing Esp1; Western blot
T1 construct: made in house; host or cells: S. cerevisiae W303 derivative overexpressing Esp1p from the GAL1-10 promoter; soluble cell extract, not purified
Procedure: A crude Triton X-100 insoluble chromatin preparation was obtained from yeast cells as described (Liang and Stillman, 1997). The pelleted chromatin was resuspended in yeast cell extracts that had been prepared similar to the supernatant fraction of the chromatin preparation. One tenth volume of an ATP regenerating system was added (50 mM HEPES/KOH pH-7.5, 100 mM KCl, 10 mM MgCl2, 10 mM ATP, 600 mM creatin phosphate, 1.5 mg/ml phophocreatin kinase, 1 mM DTT, 10% glycerol). Reactions were incubated for 10 min at 25° C. with shaking and stopped on ice. The chromatin fraction was separated again from the supernatant by centrifugation, and resuspended in buffer EBX (Liang and Stillman, 1997). Equivalent aliquots of supernatant and chromatin pellet were analysed by SDS-PAGE and Western blotting. Scc1-HA was detected with the anti-HA monoclonal antibody 16B12 (Boehringer Mannheim). […]
Chromatin was prepared from a strain containing Scc1p tagged with HA epitopes that was arrested in metaphase with nocodazol. The proteins in the chromatin preparation were resolved by SDS-PAGE and Scc1-HA was detected by western blotting (FIG. 2, lane 1). […] Aliquots of the supernatant fraction and the chromatin fraction of each reaction were analysed.

[1] = molecular target: T2, Scc1p tagged with multiple HA epitopes, chromatin-bound (chromatin of nocodazole-arrested yeast), Q12158
T2 chain: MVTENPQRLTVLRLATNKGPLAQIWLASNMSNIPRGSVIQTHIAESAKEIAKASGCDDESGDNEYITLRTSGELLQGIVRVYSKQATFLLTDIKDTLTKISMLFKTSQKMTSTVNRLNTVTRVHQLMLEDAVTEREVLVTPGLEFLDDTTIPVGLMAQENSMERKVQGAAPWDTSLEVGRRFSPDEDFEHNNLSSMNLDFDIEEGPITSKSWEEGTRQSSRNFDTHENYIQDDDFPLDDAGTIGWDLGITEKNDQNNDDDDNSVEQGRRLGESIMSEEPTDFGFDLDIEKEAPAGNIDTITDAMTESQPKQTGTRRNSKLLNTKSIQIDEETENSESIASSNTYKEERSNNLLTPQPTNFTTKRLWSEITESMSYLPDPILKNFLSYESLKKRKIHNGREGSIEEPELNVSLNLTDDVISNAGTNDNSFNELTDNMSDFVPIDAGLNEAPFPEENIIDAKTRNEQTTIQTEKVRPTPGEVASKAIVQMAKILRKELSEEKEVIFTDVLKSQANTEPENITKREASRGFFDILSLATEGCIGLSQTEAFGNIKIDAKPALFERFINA

T1 sequence (Q03018 whole entry): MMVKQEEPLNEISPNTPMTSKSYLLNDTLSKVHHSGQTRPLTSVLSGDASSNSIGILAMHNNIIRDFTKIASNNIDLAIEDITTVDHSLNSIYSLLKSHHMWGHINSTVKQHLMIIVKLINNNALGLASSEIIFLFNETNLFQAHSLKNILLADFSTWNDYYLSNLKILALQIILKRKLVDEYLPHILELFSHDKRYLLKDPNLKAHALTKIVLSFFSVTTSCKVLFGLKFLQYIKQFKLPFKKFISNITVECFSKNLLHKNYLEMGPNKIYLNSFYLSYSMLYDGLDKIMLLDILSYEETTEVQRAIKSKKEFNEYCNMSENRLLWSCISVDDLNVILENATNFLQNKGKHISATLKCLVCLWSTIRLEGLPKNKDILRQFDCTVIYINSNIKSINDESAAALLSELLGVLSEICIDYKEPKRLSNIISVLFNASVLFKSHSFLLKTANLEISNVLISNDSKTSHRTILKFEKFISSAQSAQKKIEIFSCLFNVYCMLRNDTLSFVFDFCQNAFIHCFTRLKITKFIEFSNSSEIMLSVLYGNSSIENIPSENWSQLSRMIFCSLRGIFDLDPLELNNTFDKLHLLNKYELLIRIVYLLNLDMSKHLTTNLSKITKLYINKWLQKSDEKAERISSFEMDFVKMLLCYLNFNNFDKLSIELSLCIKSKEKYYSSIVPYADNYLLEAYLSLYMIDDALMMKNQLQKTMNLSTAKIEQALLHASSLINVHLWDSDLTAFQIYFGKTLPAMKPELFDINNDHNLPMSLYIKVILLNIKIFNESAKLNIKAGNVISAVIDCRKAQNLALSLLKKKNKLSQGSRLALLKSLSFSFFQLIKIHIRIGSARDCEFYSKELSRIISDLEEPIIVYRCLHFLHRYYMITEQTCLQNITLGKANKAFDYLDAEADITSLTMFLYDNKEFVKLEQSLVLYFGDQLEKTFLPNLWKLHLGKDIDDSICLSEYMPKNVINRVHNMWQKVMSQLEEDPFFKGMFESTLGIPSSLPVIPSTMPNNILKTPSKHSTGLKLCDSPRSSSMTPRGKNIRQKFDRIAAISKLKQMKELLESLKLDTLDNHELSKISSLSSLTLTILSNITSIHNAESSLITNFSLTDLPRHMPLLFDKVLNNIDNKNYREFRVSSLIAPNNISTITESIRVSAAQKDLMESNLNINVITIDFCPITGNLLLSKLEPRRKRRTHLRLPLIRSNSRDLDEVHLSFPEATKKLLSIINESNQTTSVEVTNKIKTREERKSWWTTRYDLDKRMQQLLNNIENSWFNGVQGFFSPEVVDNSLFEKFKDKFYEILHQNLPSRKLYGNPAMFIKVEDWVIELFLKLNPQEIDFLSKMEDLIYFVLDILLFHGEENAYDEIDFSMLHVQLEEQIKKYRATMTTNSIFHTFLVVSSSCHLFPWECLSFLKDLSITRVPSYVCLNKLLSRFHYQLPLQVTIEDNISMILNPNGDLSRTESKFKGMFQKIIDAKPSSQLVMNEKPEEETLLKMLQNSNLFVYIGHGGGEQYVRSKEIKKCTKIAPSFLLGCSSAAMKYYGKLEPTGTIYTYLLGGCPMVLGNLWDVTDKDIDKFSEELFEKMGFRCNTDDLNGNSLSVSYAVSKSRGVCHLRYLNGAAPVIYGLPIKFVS

CCN1C(=O)C=CC1=O [N-ethyl maleimide]
Esp1-dependent in vitro cleavage of Scc1p (Esp1): inhibited

B1: Esp1 mutant H1505A tagged with a FLAG epitope, overexpressed in yeast (protein)
chain: MMVKQEEPLNEISPNTPMTSKSYLLNDTLSKVHHSGQTRPLTSVLSGDASSNSIGILAMHNNIIRDFTKIASNNIDLAIEDITTVDHSLNSIYSLLKSHHMWGHINSTVKQHLMIIVKLINNNALGLASSEIIFLFNETNLFQAHSLKNILLADFSTWNDYYLSNLKILALQIILKRKLVDEYLPHILELFSHDKRYLLKDPNLKAHALTKIVLSFFSVTTSCKVLFGLKFLQYIKQFKLPFKKFISNITVECFSKNLLHKNYLEMGPNKIYLNSFYLSYSMLYDGLDKIMLLDILSYEETTEVQRAIKSKKEFNEYCNMSENRLLWSCISVDDLNVILENATNFLQNKGKHISATLKCLVCLWSTIRLEGLPKNKDILRQFDCTVIYINSNIKSINDESAAALLSELLGVLSEICIDYKEPKRLSNIISVLFNASVLFKSHSFLLKTANLEISNVLISNDSKTSHRTILKFEKFISSAQSAQKKIEIFSCLFNVYCMLRNDTLSFVFDFCQNAFIHCFTRLKITKFIEFSNSSEIMLSVLYGNSSIENIPSENWSQLSRMIFCSLRGIFDLDPLELNNTFDKLHLLNKYELLIRIVYLLNLDMSKHLTTNLSKITKLYINKWLQKSDEKAERISSFEMDFVKMLLCYLNFNNFDKLSIELSLCIKSKEKYYSSIVPYADNYLLEAYLSLYMIDDALMMKNQLQKTMNLSTAKIEQALLHASSLINVHLWDSDLTAFQIYFGKTLPAMKPELFDINNDHNLPMSLYIKVILLNIKIFNESAKLNIKAGNVISAVIDCRKAQNLALSLLKKKNKLSQGSRLALLKSLSFSFFQLIKIHIRIGSARDCEFYSKELSRIISDLEEPIIVYRCLHFLHRYYMITEQTCLQNITLGKANKAFDYLDAEADITSLTMFLYDNKEFVKLEQSLVLYFGDQLEKTFLPNLWKLHLGKDIDDSICLSEYMPKNVINRVHNMWQKVMSQLEEDPFFKGMFESTLGIPSSLPVIPSTMPNNILKTPSKHSTGLKLCDSPRSSSMTPRGKNIRQKFDRIAAISKLKQMKELLESLKLDTLDNHELSKISSLSSLTLTILSNITSIHNAESSLITNFSLTDLPRHMPLLFDKVLNNIDNKNYREFRVSSLIAPNNISTITESIRVSAAQKDLMESNLNINVITIDFCPITGNLLLSKLEPRRKRRTHLRLPLIRSNSRDLDEVHLSFPEATKKLLSIINESNQTTSVEVTNKIKTREERKSWWTTRYDLDKRMQQLLNNIENSWFNGVQGFFSPEVVDNSLFEKFKDKFYEILHQNLPSRKLYGNPAMFIKVEDWVIELFLKLNPQEIDFLSKMEDLIYFVLDILLFHGEENAYDEIDFSMLHVQLEEQIKKYRATMTTNSIFHTFLVVSSSCHLFPWECLSFLKDLSITRVPSYVCLNKLLSRFHYQLPLQVTIEDNISMILNPNGDLSRTESKFKGMFQKIIDAKPSSQLVMNEKPEEETLLKMLQNSNLFVYIGAGGGEQYVRSKEIKKCTKIAPSFLLGCSSAAMKYYGKLEPTGTIYTYLLGGCPMVLGNLWDVTDKDIDKFSEELFEKMGFRCNTDDLNGNSLSVSYAVSKSRGVCHLRYLNGAAPVIYGLPIKFVS
Scc1 cleavage activity in yeast extracts [1]: Both mutations completely abolished the proteolytic activity in yeast extracts after overproduction of the proteins

B2: Pds1: yeast inhibitory protein binding Esp1; in vitro translated in reticulocyte lysate (protein)
chain: MMPANEDKENNIVYTGNESSGINFPQTPAHLLKRSHSNILKPPVRLDQLKRDANSNNGNTLKYIQGGKEVSPTKRLHTHAQQQGRLPLAAKDNNRSKSFIFPETSNQSKDADLPQLQNTLSIRKNDQLRKLSQISRSRSRANHNDLLSNSRKLQKYGSVLGYNALPKMKSLVLKDLADSGKNEESSDDDEGNEDSESKLGKKLQSALLKQDSSDGENELNGGLGLFNEQGGLQQLIKNSTKNEQKTKNDKSDKTDDYDIEIAPQRQEPLPYVPEGYSPFQQDDIEKLKTFNSPYKLDLEDEDDTPDKVDLLPLEQIDEEGEKDETECITRNQEEGAALPLLSKNFKEVAAVPTMELVYSEEGLDPEELEDLVT
Esp1-dependent in vitro cleavage of Scc1p (Esp1): inhibited
